Laboratory results published in patent publication US20120058906A1 (published 2012).

Legend:
[1] = molecular target: T1, rHuman IGF-1 sR, CF (R&D Systems Cat#391-GR) (human, UniProt P08069 31-932); experiment: ECL (MSD Multi-Spot) binding, antigen spotted on plate; Fab 500 nM;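 also: blank spot per well as comparator with Hit at signal to blank ratio of 4 or more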
T1 construct: Bought soluble receptor; also called insulin-like growth factor-1 soluble receptor; IGF-R1

[2] = molecular target: T2, rHuman ErbB2/Fc Chimera, CF (R&D Systems Cat#1129-ER) (human, UniProt P04626 23-652); experiment: as above
T2 construct: Bought Fc chimera; also called human epidermal growth factor 2 receptor; HER2/neu; Fc part of the bought chimera not given

[3] = molecular target: T3, rHuman Notch-1/Fc Chimera, CF (R&D Systems Cat#3647-TK) (human, UniProt P46531 19-526); experiment: as above
T3 construct: Bought Fc chimera; Fc part of the bought chimera not given

[4] = molecular target: T4, rHuman Erythropoietin R/Fc Chimera, CF (R&D Systems Cat#963-ER) (human, UniProt P19235 25-250); experiment: as above
T4 construct: Bought Fc chimera; also called EPO R/Fc; erythropoietin receptor; Fc part of the bought chimera not given
T4 sequence: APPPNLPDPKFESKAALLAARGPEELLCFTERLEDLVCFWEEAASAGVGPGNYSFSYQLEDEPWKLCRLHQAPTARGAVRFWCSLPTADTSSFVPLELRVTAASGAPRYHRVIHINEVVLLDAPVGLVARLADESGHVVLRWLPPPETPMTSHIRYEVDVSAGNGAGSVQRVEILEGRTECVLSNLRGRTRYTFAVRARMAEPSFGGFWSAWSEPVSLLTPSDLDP

[5] = molecular target: T5, rHuman HGF R/c-MET/Fc Chimera, CF (R&D Systems Cat#358-MT/CF) (human, UniProt P08581 25-932); experiment: as above
T5 construct: Bought Fc chimera; also called HGF R/Fc; hepatocyte growth factor receptor; Fc part of the bought chimera not given

[6] = molecular target: T6, rHuman P-Cadherin/Fc Chimera, CF (R&D Systems Cat#861-PC) (human, UniProt P22223 108-654); experiment: as above
T6 construct: Bought Fc chimera; Fc part of the bought chimera not given

[7] = molecular target: T7, Recombinant Human DLL4 (R&D Systems Cat#1506-D4/CF) (human, UniProt Q9NR61 27-524); experiment: as above
T7 construct: Bought recombinant protein; also called delta-like protein 4

[8] = molecular target: T8, rHuman CD44/Fc Chimera, CF (R&D Systems Cat#3660-CD) (human, UniProt P16070 21-220); experiment: as above
T8 construct: Bought Fc chimera; Fc part of the bought chimera not given

[9] = molecular target: T9, rHuman EGF R/Fc Chimera, CF (R&D Systems Cat#344-ER) (human, UniProt P00533 25-645); experiment: as above
T9 construct: Bought Fc chimera; also called epidermal growth factor receptor; Fc part of the bought chimera not given

[10] = molecular target: T10, rHuman Erythropoietin R/Fc Chimera, CF (R&D Systems Cat#963-ER) (human, UniProt P19235 25-250); experiment: ECL (MSD multi-spot), antigen on plate, Fab 500 nM
T10 construct: Bought Fc chimera; also called EPO R/Fc; Epo R; not shown: Fc of the bought chimera
T10 sequence: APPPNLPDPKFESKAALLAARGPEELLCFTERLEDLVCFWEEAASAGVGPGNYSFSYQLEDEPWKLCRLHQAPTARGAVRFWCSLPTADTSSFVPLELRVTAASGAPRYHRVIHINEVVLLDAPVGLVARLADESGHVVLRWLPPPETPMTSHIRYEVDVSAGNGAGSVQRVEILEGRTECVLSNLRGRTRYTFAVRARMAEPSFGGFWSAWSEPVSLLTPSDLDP

[11] = molecular target: T11, rHuman EGF R/Fc Chimera, CF (R&D Systems Cat#344-ER) (human, UniProt P00533 25-645); experiment: ECL (MSD multi-spot), antigen on plate, Fab 500 nM
T11 construct: Bought Fc chimera; also called ErbB-1; not shown: Fc of the bought chimera

[12] = molecular target: T12, rHuman HGF R/c-MET/Fc Chimera, CF (R&D Systems Cat#358-MT/CF) (human, UniProt P08581 25-932); experiment: ECL (MSD multi-spot), antigen on plate, Fab 10 nM;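 also: blank spot per well as comparator with Hit at signal to blank ratio of 4 or more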
T12 construct: Bought Fc chimera; also called HGF R/Fc; not shown: Fc of the bought chimera

[13] = molecular target: T13, rHuman CD44/Fc Chimera, CF (R&D Systems Cat#3660-CD) (human, UniProt P16070 21-220); experiment: ECL (MSD multi-spot), antigen on plate, Fab 10 nM;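 also: blank spot per well as comparator with Hit at signal to blank ratio of 4 or more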
T13 construct: Bought Fc chimera; not shown: Fc of the bought chimera

[14] = molecular target: T14, rHuman Notch-1/Fc Chimera, CF (R&D Systems Cat#3647-TK) (human, UniProt P46531 19-526); experiment: ECL (MSD multi-spot), antigen on plate, Fab 10 nM;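 also: blank spot per well as comparator with Hit at signal to blank ratio of 4 or more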
T14 construct: Bought Fc chimera; not shown: Fc of the bought chimera

[15] = molecular target: T15, rHuman ErbB2/Fc Chimera, CF (R&D Systems Cat#1129-ER) (human, UniProt P04626 23-652); experiment: ECL (MSD multi-spot), antigen on plate, Fab 10 nM;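 also: blank spot per well as comparator with Hit at signal to blank ratio of 4 or more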
T15 construct: Bought Fc chimera; also called HER2/neu; not shown: Fc of the bought chimera

[16] = molecular target: T10, rHuman Erythropoietin R/Fc Chimera, CF …; experiment: ECL (MSD multi-spot), antigen on plate, Fab 10 nM;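 also: blank spot per well as comparator with Hit at signal to blank ratio of 4 or more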
[17] = molecular target: T11, rHuman EGF R/Fc Chimera, CF (R&D …); experiment: ECL (MSD multi-spot), antigen on plate, Fab 10 nM;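 also: blank spot per well as comparator with Hit at signal to blank ratio of 4 or more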
[18] = molecular target: T16, rHuman IGF-1 sR (insulin-like growth factor-1 soluble receptor), CF (R&D Systems Cat#391-GR) (human, UniProt P08069 31-932); experiment: ECL (MSD multi-spot), antigen on plate, Fab 10 nM
T16 construct: Bought soluble receptor; also called IGF-R1

[19] = molecular target: T17, Recombinant Human DLL4 (R&D Systems Cat#1506-D4/CF) (human, UniProt Q9NR61 27-524); experiment: ECL (MSD multi-spot), antigen on plate, Fab 10 nM
T17 construct: Bought recombinant protein; also called delta-like protein 4

B1: Fab VH1-46_IGHD6-6*01_IGHJ1*01_S102A_S103P_S104F_H111Y & L6_IGKJ1*01 (Fab, V domains shown)
VH: QVQLVQSGAEVKKPGASVKVSCKASGYTFTSYYMHWVRQAPGQGLEWMGIINPSGGSTSYAQKFQGRVTMTRDTSTSTVYMELSSLRSEDTAVYYCAREEYAPFSAEYFQYWGQGTLVTVSS
VL: not shown
notes: Fab made in E. coli; The heavy chain also carries the CH1 with Flag and His tags of Plasmid A, and the light chain the kappa constant region of Plasmid C
- ECL signal [1]: 592
- ECL signal [2]: 713
- ECL signal [3]: 644
- ECL signal [4]: 1210
- ECL signal [5]: 523
- ECL signal [6]: 939
- ECL signal [7]: 93100
- ECL signal [8]: 664
- ECL signal [9]: 898

B2: Fab VH1-46_IGHD6-6*01_IGHJ1*01_S102A_S103P_S104Y_H111Y & L6_IGKJ1*01 (Fab, V domains shown)
VH: QVQLVQSGAEVKKPGASVKVSCKASGYTFTSYYMHWVRQAPGQGLEWMGIINPSGGSTSYAQKFQGRVTMTRDTSTSTVYMELSSLRSEDTAVYYCAREEYAPYSAEYFQYWGQGTLVTVSS
VL: not shown
notes: Fab made in E. coli; The heavy chain also carries CH1 with Flag and His tags from Plasmid A, and the light chain carries kappa CL from Plasmid C
- ECL signal [10]: 1270 ECL signal
- ECL signal [11]: 758 ECL signal

B3: Fab VH1-46_IGHD6-6*01_IGHJ1*01_S102A_S103P_S104F & L6_IGKJ1*01_S30N (Fab, V domains shown)
VH: QVQLVQSGAEVKKPGASVKVSCKASGYTFTSYYMHWVRQAPGQGLEWMGIINPSGGSTSYAQKFQGRVTMTRDTSTSTVYMELSSLRSEDTAVYYCAREEYAPFSAEYFQHWGQGTLVTVSS
VL: EIVLTQSPATLSLSPGERATLSCRASQSVNSYLAWYQQKPGQAPRLLIYDASNRATGIPARFSGSGSGTDFTLTISSLEPEDFAVYYCQQRSNWPPWTFGQGTKVEIKR
notes: Fab
- ECL signal [12]: 239 ECL signal
- ECL signal [13]: 286 ECL signal
- ECL signal [14]: 253 ECL signal
- ECL signal [15]: 274 ECL signal
- ECL signal [16]: 420 ECL signal
- ECL signal [17]: 245 ECL signal
- ECL signal [18]: 233 ECL signal
- ECL signal [19]: 33400 ECL signal
